Like-named read-outs stand apart in the source and are kept apart here.
How the values were obtained:
p110β [1] = assay: Transcreener ADP formation (fluorescence polarization), diC8-PIP2/POPS liposomes, mouse p110β complexes; type: biochemical; conditions: Figure 5B, C-terminal truncation vs wild-type, diC8-PIP2/POPS, 100 μM ATP, 1 h, room temperature
Protocol: (§1) Figure 1 Inhibition of p110β by p85-Type Regulatory Subunits and Activation of the Complexes by RTK Phosphopeptide (A) Domain organization of p110β and the regulatory subunits p85α, p85β, and p55γ. The color scheme for the domains is used for all figures, unless otherwise stated. […] The inhibition is released upon addition of the 10 μM PDGFR pY2. […] The y axis is expressed as a change in fluorescence polarization (ΔmP), which is obtained by subtracting the observed polarization for the construct at a given enzyme concentration from the maximum fluorescence polarization for that construct. The plateau in these assays arises due to the competitive nature of the ADP detection system, based on displacement of ADP-Alexa 633 tracer from the ADP^2-antibody by ADP generated during the PI3K assay (see Supplemental Experimental Procedures). All measurements were done in triplicates, and the error bars indicate the standard error of the mean (SEM). (C) Kinase activity of p110β/p85β complexes with monomeric substrate (75 μM diC8-PIP2) in the presence and absence of pY2; y axis as in (B). (D) Basal- and pY2-stimulated activities of 35 nM PI3K complexes in the absence of lipids (ATP hydrolysis). Activities are given as percent of ATP converted to ADP using the Transcreener assay. Bars indicate SEM. TEXT PRINTED IN THE PICTURE: (B) p110β/nic: EC50 (nM): 15 | (B) p110β/nic+pY2: EC50 (nM): 0.14 | (B) p110β/ic: EC50 (nM): 1 | (B) p110β/ic+pY2: EC50 (nM): 0.21 | (B) p110β/ni: EC50 (nM): 0.84 | (B) p110β/ni+pY2: EC50 (nM): 0.24 | (B) p110β/i: EC50 (nM): 0.12 | (B) p110β/i+pY2: EC50 (nM): 0.14 | (B) ΔABD-p110β: EC50 (nM): 0.06 | (B) ΔABD-p110β+pY2: EC50 (nM): 0.05 | (C) p110β/nic: EC50 (nM): 24 | (C) p110β/nic+pY2: EC50 (nM): 3 | (C) p110β/ic: EC50 (nM): 5 | (C) p110β/ic+pY2: EC50 (nM): 2 | (C) p110β/ni: EC50 (nM): 4 | (C) p110β/ni+pY2: EC50 (nM): 2 […]
(§2) Figure 3 Mutation Y677A in p85β-cSH2 Releases Inhibitory Effect on p110β (A) Kinase activity (ADP formation) of p110β in a complex with p85β-icSH2-Y677A (Y677A-ic) compared to the wild-type complex (ic) in the absence and presence of 10 μM PDGFR pY2 (ADP formation on the y axis expressed as in Figure 1B). (B) Comparison of p110β activities of 1 nM complexes with wild-type or Y677 mutant nicSH2 or icSH2 (activity shown as in Figure 1D). TEXT PRINTED IN THE PICTURE: (A) p110β/ic: EC50 (nM): 1 | (A) p110β/ic+pY2: EC50 (nM): 0.15 | (A) p110β/ic-Y677A: EC50 (nM): 0.11 | (A) p110β/ic-Y677A+pY2: EC50 (nM): 0.08 […]
(§3) The lipid kinase activity was determined using the Transcreener ADP2 FP Assay (BellBrook Labs, Madison, WI) according to manufacturer‟s specifications. This non-radioactive assay measures activity by quantitating the amount of ADP formed. The ADP formed by PI3K competes with fluorescent ADP tracer for binding to an anti-ADP antibody, thereby decreasing fluorescence polarization. Because of the competitive nature of this assay, the change in fluorescence polarization signal is not a linear function of enzyme activity, and a convenient measure of enzyme activity is the EC50, or the concentration of enzyme necessary to give half-maximal inhibition of labeled ADP binding to the antibody, for a given concentration of substrate and a fixed time of reaction at initial rate. While activity of two different enzyme constructs can be compared at a fixed concentration of protein and a fixed concentration of substrate, the assay is most reliable when about 2%-10% of the ATP is […]
(§4) Consequently, the EC50 provides a convenient way to compare the activities of various constructs. Briefly, reactions were performed in 10 μl volume in 384-well black plates (Corning 3676) and they contained final 100 μM ATP, 75 μM lipids and a series of protein concentration varying from 0.001 nM to 2.5 μM. Serial dilutions of protein heterodimers were prepared in buffer F (50 mM Hepes pH 7.5, 100 mM NaCl, 0.03% CHAPS, 4 mM DTT) in 5 μl […]
volume. […]

p110β [2] = molecular target: T1, p110β (Mus musculus, UniProt Q8BTI9); assay: as above; type: biochemical; conditions: Figure 5B
T1 construct: Mouse His6-p110β(1-1064)/p85β-icSH2(423-722) complex; made in house; host or cells: Sf9 insect cells (baculovirus co-infection)
T1 sequence (Q8BTI9 1-1047): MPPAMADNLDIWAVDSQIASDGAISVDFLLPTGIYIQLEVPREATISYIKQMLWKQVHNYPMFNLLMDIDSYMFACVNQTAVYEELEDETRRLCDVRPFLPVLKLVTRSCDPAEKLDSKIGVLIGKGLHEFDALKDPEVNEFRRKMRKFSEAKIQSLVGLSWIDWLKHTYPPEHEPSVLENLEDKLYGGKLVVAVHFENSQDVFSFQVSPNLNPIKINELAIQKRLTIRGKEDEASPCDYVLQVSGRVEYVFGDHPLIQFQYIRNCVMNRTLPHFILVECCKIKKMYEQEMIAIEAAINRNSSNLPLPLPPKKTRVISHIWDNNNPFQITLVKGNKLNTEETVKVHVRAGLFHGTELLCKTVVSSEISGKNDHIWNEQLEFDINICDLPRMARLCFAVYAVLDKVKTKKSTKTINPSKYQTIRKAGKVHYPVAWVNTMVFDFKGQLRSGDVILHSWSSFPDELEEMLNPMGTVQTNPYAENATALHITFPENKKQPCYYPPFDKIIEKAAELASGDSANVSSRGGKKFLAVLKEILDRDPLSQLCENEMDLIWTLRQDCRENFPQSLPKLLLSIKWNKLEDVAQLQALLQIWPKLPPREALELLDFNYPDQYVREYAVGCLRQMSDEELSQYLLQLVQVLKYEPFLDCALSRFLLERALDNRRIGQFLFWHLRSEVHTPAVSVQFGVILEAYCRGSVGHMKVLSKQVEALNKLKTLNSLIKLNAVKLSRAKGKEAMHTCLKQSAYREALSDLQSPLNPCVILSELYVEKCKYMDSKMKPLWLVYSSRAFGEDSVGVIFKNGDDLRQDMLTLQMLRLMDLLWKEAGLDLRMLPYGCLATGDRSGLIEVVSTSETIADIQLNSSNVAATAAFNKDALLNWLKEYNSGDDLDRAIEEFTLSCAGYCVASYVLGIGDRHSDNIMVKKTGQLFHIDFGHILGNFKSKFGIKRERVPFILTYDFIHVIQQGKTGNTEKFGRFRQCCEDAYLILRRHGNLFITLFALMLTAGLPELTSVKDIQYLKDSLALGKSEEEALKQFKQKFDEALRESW
T1 sequence (O08908 318-722 partner): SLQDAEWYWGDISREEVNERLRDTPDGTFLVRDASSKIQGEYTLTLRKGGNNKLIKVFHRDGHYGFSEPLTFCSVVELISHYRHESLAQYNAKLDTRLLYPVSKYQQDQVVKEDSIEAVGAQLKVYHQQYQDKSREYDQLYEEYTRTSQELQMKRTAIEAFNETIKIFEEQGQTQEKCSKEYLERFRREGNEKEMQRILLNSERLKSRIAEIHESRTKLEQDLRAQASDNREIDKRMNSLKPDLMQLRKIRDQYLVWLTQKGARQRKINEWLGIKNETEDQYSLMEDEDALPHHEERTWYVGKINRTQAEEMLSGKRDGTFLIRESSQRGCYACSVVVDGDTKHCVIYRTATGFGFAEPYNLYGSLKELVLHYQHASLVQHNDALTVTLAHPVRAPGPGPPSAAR
Protocol: as §1, §2, §3, §4
volume. […]

B1: p110β-ΔCter/nic: truncation mutant lacking 17 residues from the p110β C terminus; human ΔCter (1-1053) used in cells (protein, UniProt P42338 1-1053, looked up, fragment)
chain: MCFSFIMPPAMADILDIWAVDSQIASDGSIPVDFLLPTGIYIQLEVPREATISYIKQMLWKQVHNYPMFNLLMDIDSYMFACVNQTAVYEELEDETRRLCDVRPFLPVLKLVTRSCDPGEKLDSKIGVLIGKGLHEFDSLKDPEVNEFRRKMRKFSEEKILSLVGLSWMDWLKQTYPPEHEPSIPENLEDKLYGGKLIVAVHFENCQDVFSFQVSPNMNPIKVNELAIQKRLTIHGKEDEVSPYDYVLQVSGRVEYVFGDHPLIQFQYIRNCVMNRALPHFILVECCKIKKMYEQEMIAIEAAINRNSSNLPLPLPPKKTRIISHVWENNNPFQIVLVKGNKLNTEETVKVHVRAGLFHGTELLCKTIVSSEVSGKNDHIWNEPLEFDINICDLPRMARLCFAVYAVLDKVKTKKSTKTINPSKYQTIRKAGKVHYPVAWVNTMVFDFKGQLRTGDIILHSWSSFPDELEEMLNPMGTVQTNPYTENATALHVKFPENKKQPYYYPPFDKIIEKAAEIASSDSANVSSRGGKKFLPVLKEILDRDPLSQLCENEMDLIWTLRQDCREIFPQSLPKLLLSIKWNKLEDVAQLQALLQIWPKLPPREALELLDFNYPDQYVREYAVGCLRQMSDEELSQYLLQLVQVLKYEPFLDCALSRFLLERALGNRRIGQFLFWHLRSEVHIPAVSVQFGVILEAYCRGSVGHMKVLSKQVEALNKLKTLNSLIKLNAVKLNRAKGKEAMHTCLKQSAYREALSDLQSPLNPCVILSELYVEKCKYMDSKMKPLWLVYNNKVFGEDSVGVIFKNGDDLRQDMLTLQMLRLMDLLWKEAGLDLRMLPYGCLATGDRSGLIEVVSTSETIADIQLNSSNVAAAAAFNKDALLNWLKEYNSGDDLDRAIEEFTLSCAGYCVASYVLGIGDRHSDNIMVKKTGQLFHIDFGHILGNFKSKFGIKRERVPFILTYDFIHVIQQGKTGNTEKFGRFRQCCEDAYLILRRHGNLFITLFALMLTAGLPELTSVKDIQYLKDSLALGKSEEEALKQFKQKFDEALRESW
With B1 the EC50 (p110β [1]; absence of pY2, read-out: EC50 (enzyme concentration), lipid kinase activity, basal) was 38 nM, the EC50 (p110β [1]; with 10 μM PDGFR pY2, read-out: EC50 (enzyme concentration), lipid kinase activity, + pY2) was 57 nM and the “basal activity with diC8-PIP2/POPS” value (p110β [2]) was “very low basal activity”.

— paper PMC3670040, “Structure of Lipid Kinase p110β/p85β Elucidates an Unusual SH2-Domain-Mediated Inhibitory Mechanism” (Molecular Cell, 2011)
